Results taken from patent publication US20110105394A1 (Novo Nordisk, published 2011).
*1 amine or outer side, *2 acyl side, *3 side chain or, on linkers, in order; H or OH if unused. Bridges are numbered along the chain shown (N, C = ends). Where no end group is shown, it is not given here. The star is where a group is joined. X2 = (S)‑4‑Carboxy‑4‑(19-carboxynonadecanoylamino)butyryl, O=C(O)CCCCCCCCCCCCCCCCCCC(=O)N[C@@H](CCC(=O)*)C(=O)O; X1 = (S)‑4‑Carboxy‑4‑(17-carboxyheptadecanoylamino)butyryl, O=C(O)CCCCCCCCCCCCCCCCC(=O)N[C@@H](CCC(=O)*)C(=O)O; C20 diacid = O=C(O)CCCCCCCCCCCCCCCCCCC(=O)*; γGlu = O=C(O)[C@H](CCC(=O)[*:2])N[*:1]; AEEA = NCCOCCOCC(=O)O

Each binder was assayed against T1, Amylin 3(a) receptor (human calcitonin receptor (CTa) with RAMP-3) (human, UniProt P30988 25-474; O60896 24-148, limits assumed) (assay: cell-based or functional assay).
T1 sequence (looked up) 1: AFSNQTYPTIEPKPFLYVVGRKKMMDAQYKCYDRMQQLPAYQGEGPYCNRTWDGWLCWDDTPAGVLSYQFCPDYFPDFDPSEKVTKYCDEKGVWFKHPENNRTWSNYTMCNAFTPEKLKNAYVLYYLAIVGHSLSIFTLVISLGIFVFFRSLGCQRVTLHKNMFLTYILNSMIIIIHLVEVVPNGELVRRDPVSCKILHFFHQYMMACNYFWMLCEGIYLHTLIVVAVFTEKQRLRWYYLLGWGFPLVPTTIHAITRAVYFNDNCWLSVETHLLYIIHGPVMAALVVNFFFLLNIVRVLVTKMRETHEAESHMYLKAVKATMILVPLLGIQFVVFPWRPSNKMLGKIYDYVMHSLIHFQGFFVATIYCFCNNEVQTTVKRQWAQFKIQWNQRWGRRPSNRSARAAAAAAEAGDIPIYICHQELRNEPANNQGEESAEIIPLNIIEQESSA
T1 sequence (looked up) 2: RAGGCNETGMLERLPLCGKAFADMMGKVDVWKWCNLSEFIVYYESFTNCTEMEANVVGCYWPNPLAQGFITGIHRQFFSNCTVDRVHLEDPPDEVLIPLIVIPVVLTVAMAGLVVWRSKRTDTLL

Binder	Potency Luciferase [nM]
{C20 diacid-γGlu}-CNTATCATQRLANFLRHSSNNFGPILPPTNVGSNTY-NH2 (disulfide 1-6; SMILES CC[C@H](C)[C@H](NC(=O)[C@@H]1CCCN1C(=O)CNC(=O)[C@H](Cc1ccccc1)NC(=O)[C@H](CC(N)=O)NC(=O)[C@H](CC(N)=O)NC(=O)[C@H](CO)NC(=O)[C@H](CO)NC(=O)[C@H](Cc1c[nH]cn1)NC(=O)[C@H](CCCNC(=N)N)NC(=O)[C@H](CC(C)C)NC(=O)[C@H](Cc1ccccc1)NC(=O)[C@H](CC(N)=O)NC(=O)[C@H](C)NC(=O)[C@H](CC(C)C)NC(=O)[C@H](CCCNC(=N)N)NC(=O)[C@H](CCC(N)=O)NC(=O)[C@@H](NC(=O)[C@H](C)NC(=O)[C@@H]1CSSC[C@H](NC(=O)CC[C@H](NC(=O)CCCCCCCCCCCCCCCCCCC(=O)O)C(=O)O)C(=O)N[C@@H](CC(N)=O)C(=O)N[C@@H]([C@@H](C)O)C(=O)N[C@@H](C)C(=O)N[C@@H]([C@@H](C)O)C(=O)N1)[C@@H](C)O)C(=O)N[C@@H](CC(C)C)C(=O)N1CCC[C@H]1C(=O)N1CCC[C@H]1C(=O)N[C@H](C(=O)N[C@@H](CC(N)=O)C(=O)N[C@H](C(=O)NCC(=O)N[C@@H](CO)C(=O)N[C@@H](CC(N)=O)C(=O)N[C@H](C(=O)N[C@@H](Cc1ccc(O)cc1)C(N)=O)[C@@H](C)O)C(C)C)[C@@H](C)O) [N-alpha-[(S)-4-Carboxy-4-(19-carboxynonadecanoylamino)butyryl]-[Arg17]-pramlintide (2-37)]	0.2
X2-RKCNTATCATQRLANFLGHSSNNFGPILPPTNVGSNTY-NH2 (disulfide 3-8; SMILES CC[C@H](C)[C@H](NC(=O)[C@@H]1CCCN1C(=O)CNC(=O)[C@H](Cc1ccccc1)NC(=O)[C@H](CC(N)=O)NC(=O)[C@H](CC(N)=O)NC(=O)[C@H](CO)NC(=O)[C@H](CO)NC(=O)[C@H](Cc1c[nH]cn1)NC(=O)CNC(=O)[C@H](CC(C)C)NC(=O)[C@H](Cc1ccccc1)NC(=O)[C@H](CC(N)=O)NC(=O)[C@H](C)NC(=O)[C@H](CC(C)C)NC(=O)[C@H](CCCNC(=N)N)NC(=O)[C@H](CCC(N)=O)NC(=O)[C@@H](NC(=O)[C@H](C)NC(=O)[C@@H]1CSSC[C@H](NC(=O)[C@H](CCCCN)NC(=O)[C@H](CCCNC(=N)N)NC(=O)CC[C@H](NC(=O)CCCCCCCCCCCCCCCCCCC(=O)O)C(=O)O)C(=O)N[C@@H](CC(N)=O)C(=O)N[C@@H]([C@@H](C)O)C(=O)N[C@@H](C)C(=O)N[C@@H]([C@@H](C)O)C(=O)N1)[C@@H](C)O)C(=O)N[C@@H](CC(C)C)C(=O)N1CCC[C@H]1C(=O)N1CCC[C@H]1C(=O)N[C@H](C(=O)N[C@@H](CC(N)=O)C(=O)N[C@H](C(=O)NCC(=O)N[C@@H](CO)C(=O)N[C@@H](CC(N)=O)C(=O)N[C@H](C(=O)N[C@@H](Cc1ccc(O)cc1)C(N)=O)[C@@H](C)O)C(C)C)[C@@H](C)O) [N-alpha-[(S)-4-Carboxy-4-(19-carboxynonadecanoylamino)butyryl]-Arg-[Gly17]-pramlintide]	0.1
X1-CNTATCATQRLANFLHHSSNNFGPILPPTNVGSNTY-NH2 (disulfide 1-6) [N-alpha-[(S)-4-Carboxy-4-(17-carboxyheptadecanoylamino)butyryl]-[His17]-pramlintide (2-37)]	0.08
X2-RKCNTATCATQRLANFLHHSSNNFGPILPPTNVGSNTY-NH2 (disulfide 3-8; SMILES CC[C@H](C)[C@H](NC(=O)[C@@H]1CCCN1C(=O)CNC(=O)[C@H](Cc1ccccc1)NC(=O)[C@H](CC(N)=O)NC(=O)[C@H](CC(N)=O)NC(=O)[C@H](CO)NC(=O)[C@H](CO)NC(=O)[C@H](Cc1c[nH]cn1)NC(=O)[C@H](Cc1c[nH]cn1)NC(=O)[C@H](CC(C)C)NC(=O)[C@H](Cc1ccccc1)NC(=O)[C@H](CC(N)=O)NC(=O)[C@H](C)NC(=O)[C@H](CC(C)C)NC(=O)[C@H](CCCNC(=N)N)NC(=O)[C@H](CCC(N)=O)NC(=O)[C@@H](NC(=O)[C@H](C)NC(=O)[C@@H]1CSSC[C@H](NC(=O)[C@H](CCCCN)NC(=O)[C@H](CCCNC(=N)N)NC(=O)CC[C@H](NC(=O)CCCCCCCCCCCCCCCCCCC(=O)O)C(=O)O)C(=O)N[C@@H](CC(N)=O)C(=O)N[C@@H]([C@@H](C)O)C(=O)N[C@@H](C)C(=O)N[C@@H]([C@@H](C)O)C(=O)N1)[C@@H](C)O)C(=O)N[C@@H](CC(C)C)C(=O)N1CCC[C@H]1C(=O)N1CCC[C@H]1C(=O)N[C@H](C(=O)N[C@@H](CC(N)=O)C(=O)N[C@H](C(=O)NCC(=O)N[C@@H](CO)C(=O)N[C@@H](CC(N)=O)C(=O)N[C@H](C(=O)N[C@@H](Cc1ccc(O)cc1)C(N)=O)[C@@H](C)O)C(C)C)[C@@H](C)O) [N-alpha-[(S)-4-Carboxy-4-(19-carboxynonadecanoylamino)butyryl]-Arg-[His17]-pramlintide]	0.08
{C20 diacid-γGlu-AEEA}-CNTATCATQRLANFLHHSSNNFGPILPPTNVGSNTY-NH2 (disulfide 1-6)	0.1
CNTATCATQRLANFLAHSSNNFGPILPPTNVGSNTY-NH2 (disulfide 1-6; not fully specified (N-terminus); printed as N-alpha-[(S)-4-Carboxy-4-(19-carboxynonadecanoylamino)butyryl]-[Ala17]-pramlintide (2-37)) [N-alpha-[(S)-4-Carboxy-4-(19-carboxynonadecanoylamino)butyryl]-[Ala17]-pramlintide (2-37)]	0.1

The next lines start with the values.

Potency Luciferase [nM]	Binder
8	{C20 diacid-γGlu}-CNTATCATQRLANFLPHSSNNFGPILPPTNVGSNTY-NH2 (disulfide 1-6; SMILES CC[C@H](C)[C@H](NC(=O)[C@@H]1CCCN1C(=O)CNC(=O)[C@H](Cc1ccccc1)NC(=O)[C@H](CC(N)=O)NC(=O)[C@H](CC(N)=O)NC(=O)[C@H](CO)NC(=O)[C@H](CO)NC(=O)[C@H](Cc1c[nH]cn1)NC(=O)[C@@H]1CCCN1C(=O)[C@H](CC(C)C)NC(=O)[C@H](Cc1ccccc1)NC(=O)[C@H](CC(N)=O)NC(=O)[C@H](C)NC(=O)[C@H](CC(C)C)NC(=O)[C@H](CCCNC(=N)N)NC(=O)[C@H](CCC(N)=O)NC(=O)[C@@H](NC(=O)[C@H](C)NC(=O)[C@@H]1CSSC[C@H](NC(=O)CC[C@H](NC(=O)CCCCCCCCCCCCCCCCCCC(=O)O)C(=O)O)C(=O)N[C@@H](CC(N)=O)C(=O)N[C@@H]([C@@H](C)O)C(=O)N[C@@H](C)C(=O)N[C@@H]([C@@H](C)O)C(=O)N1)[C@@H](C)O)C(=O)N[C@@H](CC(C)C)C(=O)N1CCC[C@H]1C(=O)N1CCC[C@H]1C(=O)N[C@H](C(=O)N[C@@H](CC(N)=O)C(=O)N[C@H](C(=O)NCC(=O)N[C@@H](CO)C(=O)N[C@@H](CC(N)=O)C(=O)N[C@H](C(=O)N[C@@H](Cc1ccc(O)cc1)C(N)=O)[C@@H](C)O)C(C)C)[C@@H](C)O) [N-alpha-[(S)-4-Carboxy-4-(19-carboxynonadecanoylamino)butyryl]-[Pro17]-pramlintide (2-37)]
0.1	{C20 diacid-γGlu}-CNTATCATQRLANFLSHSSNNFGPILPPTNVGSNTY-NH2 (disulfide 1-6; SMILES CC[C@H](C)[C@H](NC(=O)[C@@H]1CCCN1C(=O)CNC(=O)[C@H](Cc1ccccc1)NC(=O)[C@H](CC(N)=O)NC(=O)[C@H](CC(N)=O)NC(=O)[C@H](CO)NC(=O)[C@H](CO)NC(=O)[C@H](Cc1c[nH]cn1)NC(=O)[C@H](CO)NC(=O)[C@H](CC(C)C)NC(=O)[C@H](Cc1ccccc1)NC(=O)[C@H](CC(N)=O)NC(=O)[C@H](C)NC(=O)[C@H](CC(C)C)NC(=O)[C@H](CCCNC(=N)N)NC(=O)[C@H](CCC(N)=O)NC(=O)[C@@H](NC(=O)[C@H](C)NC(=O)[C@@H]1CSSC[C@H](NC(=O)CC[C@H](NC(=O)CCCCCCCCCCCCCCCCCCC(=O)O)C(=O)O)C(=O)N[C@@H](CC(N)=O)C(=O)N[C@@H]([C@@H](C)O)C(=O)N[C@@H](C)C(=O)N[C@@H]([C@@H](C)O)C(=O)N1)[C@@H](C)O)C(=O)N[C@@H](CC(C)C)C(=O)N1CCC[C@H]1C(=O)N1CCC[C@H]1C(=O)N[C@H](C(=O)N[C@@H](CC(N)=O)C(=O)N[C@H](C(=O)NCC(=O)N[C@@H](CO)C(=O)N[C@@H](CC(N)=O)C(=O)N[C@H](C(=O)N[C@@H](Cc1ccc(O)cc1)C(N)=O)[C@@H](C)O)C(C)C)[C@@H](C)O) [N-alpha-[(S)-4-Carboxy-4-(19-carboxynonadecanoylamino)butyryl]-[Ser17]-pramlintide (2-37)]
0.4	{C20 diacid-γGlu}-CNTATCATQRLANFLGHSSNNFGPILPPTNVGSNTY-NH2 (disulfide 1-6; SMILES CC[C@H](C)[C@H](NC(=O)[C@@H]1CCCN1C(=O)CNC(=O)[C@H](Cc1ccccc1)NC(=O)[C@H](CC(N)=O)NC(=O)[C@H](CC(N)=O)NC(=O)[C@H](CO)NC(=O)[C@H](CO)NC(=O)[C@H](Cc1c[nH]cn1)NC(=O)CNC(=O)[C@H](CC(C)C)NC(=O)[C@H](Cc1ccccc1)NC(=O)[C@H](CC(N)=O)NC(=O)[C@H](C)NC(=O)[C@H](CC(C)C)NC(=O)[C@H](CCCNC(=N)N)NC(=O)[C@H](CCC(N)=O)NC(=O)[C@@H](NC(=O)[C@H](C)NC(=O)[C@@H]1CSSC[C@H](NC(=O)CC[C@H](NC(=O)CCCCCCCCCCCCCCCCCCC(=O)O)C(=O)O)C(=O)N[C@@H](CC(N)=O)C(=O)N[C@@H]([C@@H](C)O)C(=O)N[C@@H](C)C(=O)N[C@@H]([C@@H](C)O)C(=O)N1)[C@@H](C)O)C(=O)N[C@@H](CC(C)C)C(=O)N1CCC[C@H]1C(=O)N1CCC[C@H]1C(=O)N[C@H](C(=O)N[C@@H](CC(N)=O)C(=O)N[C@H](C(=O)NCC(=O)N[C@@H](CO)C(=O)N[C@@H](CC(N)=O)C(=O)N[C@H](C(=O)N[C@@H](Cc1ccc(O)cc1)C(N)=O)[C@@H](C)O)C(C)C)[C@@H](C)O) [N-alpha-[(S)-4-Carboxy-4-(19-carboxynonadecanoylamino)butyryl]-[Gly17]-pramlintide (2-37)]
